From US20040001826A1 (published 2004) come the findings set out here.

B1: human TANGO 268 (glycoprotein VI, GPVI) (receptor)
chain: QSGPLPKPSLQALPSSLVPLEKPVTLRCQGPPGVDLYRLEKLSSSRYQDQAVLFIPAMKRSLAGRYRCSYQNGSLWSLPSDQLELVATGVFAKPSLSAQPGPAVSSGGDVTLQCQTRYGFDQFALYKEGDPAPYKNPERWYRASFPIITVTAAHSGTYRCYSFSSRDPYLWSAPSDPLELVVTGTSVTPSRLPTEPPSSVAEFSEATAELTVSFTNKVFTTETSRSITTSPKESDSPAGPARQYYTKGNLVRICLGAVILIILAGFLAEDWHSRRKRLRHRGRAVQRPLPPLPPLPQTRKSHGGQDGGRQDVHSRGLCS
notes: Full-length protein: in lysates of transfected CHO cells and of human platelets (blots), on transduced U937, K562 and HEL cells, and on human platelets; Signal peptide 1-20 is a SIGNALP prediction; also called hGPVI; rhGPVI
B3: convulxin (Cvx), purified from the venom of Crotalus durissus terrificus (ligand)
chain 1: GLHCPSDWYYYDQHCYRIFNEEMNWEDAEWFCTKQAKGAHLVSIKSAKEADFVAWMVTQNIEESFSHVSIGLRVQNKEKQCSTKWSDGSSVSYDNLLDLYITKCSLLKKETGFRKWFVASCIGKIPFVCKFPPQC
chain 2: GFCCPSHWSSYDRYCYKVFKQEMTWADAEKFCTQQHTGSHLVSFHSTEEVDFVVKMTHQSLKSTFFWIGANNIWNKCNWQWSDGTKPEYKEWHEEFECLISRTFDNQWLSAPCSDTYSFVCKFEA

Test [1] deals with baboon GPVI on baboon platelets (baboon). Kind of test: flow cytometry, washed baboon platelets, FITC anti-mouse IgG; negative control. (In general: A flow cytometer gives signals particle by particle.)
For test [2], the target named is B1. Kind of test: flow cytometry, washed human platelets, FITC anti-mouse IgG; negative control.
Test [3] concerns the target soluble human GPVI-Fc (extracellular domain of GPVI fused to human IgG1 Fc) (human) (UniProt Q9HCN6). Kind of test: SPR (BIAcore), GPVI-Fc coupled to the chip, bivalent model; negative control. A general note: SPR reads the build-up and loss of mass on a sensor chip optically.
The next test deals with collagen type I. Kind of test: cell-based or functional assay.
Test [4] concerns the target B3. Kind of test: ligand blot with 125I-Cvx on lysates of transfected CHO cells and of platelets.
Test [5] concerns the target T1, bovine serum albumin (BSA) (UniProt P02769 25-607).
T1 construct: Control surface in the cell adhesion assay
Kind of test: adhesion of 51Cr-labelled GPVI-transduced U937 cells to immobilized BSA.

The target of test [6] is T1, bovine serum albumin (BSA). Kind of test: adhesion of 51Cr-labelled GPVI-transduced FDC-P1 cells to immobilized BSA.
Test [7] addresses B3. Kind of test: flow cytometry, FITC-Cvx.
Test [8] deals with baboon GPVI on baboon platelets (baboon). Kind of test: flow cytometry, washed baboon platelets; positive control.
Test [9] concerns the target B1.
The target in test [10] is T2, mouse collagen (type III) in descending aorta sections (mouse, UniProt P08121 155-1219, limits assumed).
T2 construct: The target is tissue; also called mouse type III collagen; mouse aorta sections
T2 sequence (looked up): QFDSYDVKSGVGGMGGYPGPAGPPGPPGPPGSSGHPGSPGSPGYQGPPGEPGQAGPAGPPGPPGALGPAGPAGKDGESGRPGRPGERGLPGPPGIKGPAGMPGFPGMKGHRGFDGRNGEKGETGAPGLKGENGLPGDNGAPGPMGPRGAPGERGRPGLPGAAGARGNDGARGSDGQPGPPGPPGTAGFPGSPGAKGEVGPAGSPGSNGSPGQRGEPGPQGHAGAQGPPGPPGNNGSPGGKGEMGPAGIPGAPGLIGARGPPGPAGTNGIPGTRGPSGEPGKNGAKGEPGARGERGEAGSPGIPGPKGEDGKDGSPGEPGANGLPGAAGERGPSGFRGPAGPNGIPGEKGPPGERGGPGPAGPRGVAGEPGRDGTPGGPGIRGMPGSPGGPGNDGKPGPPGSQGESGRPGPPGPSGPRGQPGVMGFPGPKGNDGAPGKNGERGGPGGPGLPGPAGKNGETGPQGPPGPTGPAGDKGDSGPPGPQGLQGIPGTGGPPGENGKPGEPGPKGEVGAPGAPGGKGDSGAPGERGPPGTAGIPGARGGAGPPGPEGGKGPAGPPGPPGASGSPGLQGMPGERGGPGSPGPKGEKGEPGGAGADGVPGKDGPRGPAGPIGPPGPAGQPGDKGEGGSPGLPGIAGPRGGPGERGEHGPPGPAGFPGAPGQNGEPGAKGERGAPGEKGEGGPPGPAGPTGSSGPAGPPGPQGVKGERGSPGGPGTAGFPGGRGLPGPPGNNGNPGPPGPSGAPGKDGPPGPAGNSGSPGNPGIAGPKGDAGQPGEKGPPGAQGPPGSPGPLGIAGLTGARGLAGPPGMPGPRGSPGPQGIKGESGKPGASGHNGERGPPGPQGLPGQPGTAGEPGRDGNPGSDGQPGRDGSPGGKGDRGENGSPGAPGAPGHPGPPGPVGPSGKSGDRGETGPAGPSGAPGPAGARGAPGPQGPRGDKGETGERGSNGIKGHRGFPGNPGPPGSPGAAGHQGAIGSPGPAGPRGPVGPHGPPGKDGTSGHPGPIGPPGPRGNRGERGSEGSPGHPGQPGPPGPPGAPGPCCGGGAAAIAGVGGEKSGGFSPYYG
Kind of test: immunofluorescence on mouse descending aorta sections, anti-human Fc detection.
Experimental: The descending aorta was dissected and postfixed for 1.5 hours in the same fixative at room temperature. […] The descending aorta was then frozen in Tissue Tek OCT (Sakura, Tokyo, Japan). Frozen 12 micrometer cross sections of the descending aorta were cut using a cryostat (Microm, VWR, West Chester, Pa.) onto poly-1-Lysine (3 mg/ml; Sigma) coated Superfrost Plus microscope slides (VWR). Slides were stored at −80° C. until staining.
Slides containing descending aorta sections were placed at 37° C. for 6 minutes and then tissue sections were encircled with the hydrophobic substance contained in a PAP pen (RPI, Mount Prospect, Ill.). Slides were then washed 2 times for 7.5 minutes each in 0.1 M phosphate buffer, pH 6.9 (PB). Sections were then incubated for 1 hour at room temperature in a pool of solution, bordered by the hydrophobic markings, containing a 1:50 dilution of normal donkey serum (Jackson ImmunoResearch Laboratories, Inc., West Grove, Pa.) diluted with PBX. PBX is made by adding 300 microliters of Triton X-100 (Sigma) to 100 ml of 0.1M PB. Slides were than washed three times for 10 minutes each in 0.1M PB. […] Slides were then washed three times for 10 minutes each in 0.1M PB. […] Finally, slides were coverslipped using Vectashield (Vector Laboratories, Burlingame, Calif.) and the sites of GPVI binding to mouse descending aorta sections was observed using a fluorescence microscope.

T1 sequence (P02769 25-607 limits assumed): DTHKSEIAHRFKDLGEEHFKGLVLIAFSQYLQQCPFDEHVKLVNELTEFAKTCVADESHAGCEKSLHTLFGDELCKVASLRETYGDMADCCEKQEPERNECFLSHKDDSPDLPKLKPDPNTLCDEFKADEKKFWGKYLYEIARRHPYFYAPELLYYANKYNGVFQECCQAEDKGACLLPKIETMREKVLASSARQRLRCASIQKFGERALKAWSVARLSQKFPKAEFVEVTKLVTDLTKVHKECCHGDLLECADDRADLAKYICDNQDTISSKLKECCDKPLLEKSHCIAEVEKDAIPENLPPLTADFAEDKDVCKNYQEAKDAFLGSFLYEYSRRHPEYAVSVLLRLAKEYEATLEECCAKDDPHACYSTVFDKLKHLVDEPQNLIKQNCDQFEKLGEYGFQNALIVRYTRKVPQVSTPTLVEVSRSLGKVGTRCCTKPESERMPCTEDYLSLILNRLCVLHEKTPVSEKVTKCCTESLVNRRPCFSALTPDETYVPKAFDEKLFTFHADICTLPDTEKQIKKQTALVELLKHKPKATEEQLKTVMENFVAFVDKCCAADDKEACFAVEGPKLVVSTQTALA

On to “monoclonal antibody 7H14.1 (negative control)”, for which, in [1], the Baboon fluorescence intensity turned out to be 9 and the Baboon platelets % positive amounted to 6.8%. In [2], the Human fluorescence intensity amounted to 7 and the Human platelets % positive came out at 1.4%.
Take “monoclonal antibody 7120.2 (negative control)”: the Kd in test [3] was determined as 210 nM. In [1], this molecule came in with a Baboon fluorescence intensity of 10 and a Baboon platelets % positive of 9%. In test [2], this molecule came in with a Human fluorescence intensity of 7 and a Human platelets % positive of 1.6%.
In the test with collagen type I, “recombinant human soluble GPVI:Fc fusion protein (rhusGPVI:Fc) (from UniProt Q9HCN6 21-269)” registered a concentration of rhusGPVI:Fc needed for inhibition, against that needed for Cvx of 10 fold.
Turning to B1, the binding result in [4] is on record as “binds”; in [5] it was “no binding”.

B2: mouse TANGO 268 (murine GPVI) (receptor)
chain: QSGPLPKPSLQAQPSSLVPLGQSVILRCQGPPDVDLYRLEKLKPEKYEDQDFLFIPTMERSNAGRYRCSYQNGSHWSLPSDQLELIATGVYAKPSLSAHPSSAVPQGRDVTLKCQSPYSFDEFVLYKEGDTGPYKRPEKWYRANFPIITVTAAHSGTYRCYSFSSSSPYLWSAPSDPLVLVVTGLSATPSQVPTEESFPVTESSRRPSILPTNKISTTEKPMNITASPEGLSPPIGFAHQHYAKGNLVRICLGATIIIILLGLLAEDWHSRKKCLQHRMRALQRPLPPLPLA
notes: Full-length protein on retrovirally transduced FDC-P1, 32D and Ba/F3 cells; Signal peptide 1-21 is a SIGNALP prediction; also called mGPVI; rmGPVI
Turning to B2, the binding result in test [6] was “no binding”; in test [7] it was “binds”.
As for B3, in test [8], the Baboon fluorescence intensity was 72 and the Baboon platelets % positive turned out to be 95%. Moreover, the 50% inhibitory concentration (IC50) (as a rule, the concentration at which inhibition is half-maximal) in test [9] was 4 nM.

B4: human neurotactin conjugated to human Fc (Fc fusion, UniProt P78423 25-341, looked up)
chain: QHHGVTKCNITCSKMTSKIPVALLIHYQQNQASCGKRAIILETRQHRLFCADPKEQWVKDAMQHLDRQAAALTRNGGTFEKQIGEVKPRTTPAAGGMDESVVLEPEATGESSSLEPTPSSQEAQRALGTSPELPTGVTGSSGTRLPPTPKAQDGGPVGTELFRVPPVSTAATWQSSAPHQPGPSLWAEAKTSEAPSTQDPSTQASTASSPAPEENAPSEGQRVWGQGQSPRPENSLEREEMGPVPAHTDAFQDWGPGSMAHVSVVPVSSEGTPSREPVASGSWTPKAEEPIHATMDPQRLGVLITPVPDAQAATRRQ
notes: Negative-control Fc fusion; not shown: human Fc
For B4, in [10], the binding result was “no binding”.
